Results: publication PMC3510509, “Binding of two DNA molecules by type II topoisomerases for decatenation”

Key:
[1] = biological target: MAEB hybrid gyrase (MsGyrA + EcGyrB) (Mycobacterium smegmatis / Escherichia …, UniProt P48354;P0AES6 1-842;1-804); assay: EMSA; one complex; EMSA: 35 mM Tris-HCl pH 7.5, 1 mM spermidine, 25 mM K-glutamate, 90 ug/ml tRNA, 1.4 mM ATP, 50 ug/ml BSA, room temp (25 C), 1 nM DNA; filter binding: same mix o
[2] = biological target: Topoisomerase IV holoenzyme (Escherichia coli, UniProt P0AFI2;P20083 1-752;1-630); assay: EMSA; 5-40 nM; two complexes; EMSA: 35 mM Tris-HCl pH 7.5, 1 mM spermidine, 25 mM K-glutamate, 90 ug/ml tRNA, 1.4 mM ATP, 50 ug/ml BSA, room temp (25 C), 1 nM DNA; filter binding: same mix on ice; SPR: 33 mM Tris-HCl pH 8.0, 5 mM MgCl2, 3 mM DTT, 25 C; settings: protein: recombinant; chain copies: 2;2; label: 32P 5'-end; blunt
[3] = biological target: DNA gyrase holoenzyme (EcGyr) (Escherichia coli, UniProt P0AES4;P0AES6 1-875;1-804); assay: EMSA; 1.4 mM ATP; one complex; EMSA: 35 mM Tris-HCl pH 7.5, 1 mM spermidine, 25 mM K-glutamate, 90 ug/ml tRNA, 1.4 mM ATP, 50 ug/ml BSA, room temp (25 C), 1 nM DNA; filter binding: same mix o
GyrB R321A = GyrB R321A (Mycobacterium smegmatis, UniProt P0C559 1-675, R321A); assay: EMSA; 200 and 400 nM; complex not seen; EMSA: 35 mM Tris-HCl pH 7.5, 1 mM spermidine, 25 mM K-glutamate, 90 ug/ml tRNA, 1.4 mM ATP, 50 ug/ml BSA, room temp (25 C), 1 nM DNA; filter binding: same mix on ice; SPR: 33 mM Tris-HCl pH 8.0, 5 mM MgCl2, 3 mM DTT, 25 C; settings: protein: recombinant; label: 32P 5'-end; blunt
GyrB (MsGyrB) = GyrB (MsGyrB) (Mycobacterium smegmatis, UniProt P0C559 1-675); assay: EMSA; 0.1 and 0.2 uM GyrB; EMSA: 35 mM Tris-HCl pH 7.5, 1 mM spermidine, 25 mM K-glutamate, 90 ug/ml tRNA, 1.4 mM ATP, 50 ug/ml BSA, room temp (25 C), 1 nM DNA; filter binding: same mix on ice; SPR: 33 mM Tris-HCl pH 8.0, 5 mM MgCl2, 3 mM DTT, 25 C; settings: protein: recombinant; label: 32P 5'-end; blunt
[4] = biological target: EAMB hybrid gyrase (EcGyrA + MsGyrB) (Escherichia coli / Mycobacterium …, UniProt P0AES4;P0C559 1-875;1-675); assay: EMSA; two complexes; EMSA: 35 mM Tris-HCl pH 7.5, 1 mM spermidine, 25 mM K-glutamate, 90 ug/ml tRNA, 1.4 mM ATP, 50 ug/ml BSA, room temp (25 C), 1 nM DNA; filter binding: same mix on ice; SPR: 33 mM Tris-HCl pH 8.0, 5 mM MgCl2, 3 mM DTT, 25 C; settings: protein: recombinant; chain copies: 2;2; label: 32P 5'-end; blunt
ParE = ParE (Escherichia coli, UniProt P20083 1-630); assay: filter binding; 20 nM protein; most efficient of those tested; EMSA: 35 mM Tris-HCl pH 7.5, 1 mM spermidine, 25 mM K-glutamate, 90 ug/ml tRNA, 1.4 mM ATP, 50 ug/ml BSA, room temp (25 C), 1 nM DNA; filter binding: same mix on ice; SPR: 33 mM Tris-HCl pH 8.0, 5 mM MgCl2, 3 mM DTT, 25 C; settings: protein: recombinant; label: 32P 5'-end; blunt
[5] = biological target: T1, DNA gyrase holoenzyme (MsGyr) (Mycobacterium smegmatis, UniProt P48354;P0C559 1-842;1-675); assay: EMSA; 1.4 mM ATP; two complexes; EMSA: 35 mM Tris-HCl pH 7.5, 1 mM spermidine, 25 mM K-glutamate, 90 ug/ml tRNA, 1.4 mM ATP, 50 ug/ml BSA, room temp (25 C), 1 nM DNA; filter binding: same mix on ice; SPR: 33 mM Tris-HCl pH 8.0, 5 mM MgCl2, 3 mM DTT, 25 C; settings: protein: recombinant, chain copies: 2;2, blunt
[6] = biological target: T1, DNA gyrase holoenzyme (MsGyr); assay: pull-down; first DNA, then 240 bp; 200 nM enzyme; EMSA: 35 mM Tris-HCl pH 7.5, 1 mM spermidine, 25 mM K-glutamate, 90 ug/ml tRNA, 1.4 mM ATP, 50 ug/ml BSA, room temp (25 C), 1 nM DNA; filter binding: same mix on ice; SPR: 33 mM Tris-HCl pH 8.0, 5 mM MgCl2, 3 mM DTT, 25 C; settings: protein: recombinant; chain copies: 2;2; label: biotin on one strand, 32P on complement; blunt
[7] = biological target: T1, DNA gyrase holoenzyme (MsGyr); assay: EMSA; 1.4 mM ATP; one complex; EMSA: 35 mM Tris-HCl pH 7.5, 1 mM spermidine, 25 mM K-glutamate, 90 ug/ml tRNA, 1.4 mM ATP, 50 ug/ml BSA, room temp (25 C), 1 nM DNA; filter binding: same mix on ice; SPR: 33 mM Tris-HCl pH 8.0, 5 mM MgCl2, 3 mM DTT, 25 C; settings: protein: recombinant; chain copies: 2;2; label: 32P 5'-end; blunt

B1: DNA II (72 bp) (dsDNA)
DNA 1: ACTCTAGAGGATCCCCGGTTGGACTAAGTCCCCAGGCCCCTTAGCCACCACAACGTGGGTACCGAGCTCGAA
DNA 2: TTCGAGCTCGGTACCCACGTTGTGGTGGCTAAGGGGCCTGGGGACTTAGTCCAACCGGGGATCCTCTAGAGT
- binding result [1]: binds
- binding result [2]: binds
- binding result [3]: binds
- binding result (GyrB R321A): no binding
- binding result (GyrB (MsGyrB)): binds
- binding result [4]: binds
- binding result (ParE): binds
- binding result ([5]; label: 32P 5'-end): binds

B2: biotinylated 72 bp DNA (dsDNA)
DNA 1: ACTCTAGAGGATCCCCGGTTGGACTAAGTCCCCAGGCCCCTTAGCCACCACAACGTGGGTACCGAGCTCGAA
DNA 2: TTCGAGCTCGGTACCCACGTTGTGGTGGCTAAGGGGCCTGGGGACTTAGTCCAACCGGGGATCCTCTAGAGT
- binding result [6]: binds

B3: DNA III (143 bp) (dsDNA)
DNA 1: GTAAAACGACGGCCAGTGCCAAGCTTGCATGCCTGCAGGTCGACTCTAGAGGATCCCCGGTTGGACTAAGTCCCCAGGCCCCTTAGCCACCACAACGTGGGTACCGAGCTCGAATTCGTAATCATGGTCATAGCTGTTTCCTG
DNA 2: CAGGAAACAGCTATGACCATGATTACGAATTCGAGCTCGGTACCCACGTTGTGGTGGCTAAGGGGCCTGGGGACTTAGTCCAACCGGGGATCCTCTAGAGTCGACCTGCAGGCATGCAAGCTTGGCACTGGCCGTCGTTTTAC
- binding result [3]: binds
- binding result ([5]; label: 32P 5'-end (forward primer)): binds

B4: DNA I (40 bp) (dsDNA)
DNA 1: GGTTGGACTAAGTCCCCAGGCCCCTTAGCCACCACAACGT
DNA 2: ACGTTGTGGTGGCTAAGGGGCCTGGGGACTTAGTCCAACC
- binding result [3]: binds
- binding result [7]: binds
